# Data reported in the DeepSol protein solubility set.
# Assay: soluble on expression in E. coli; label from the status in PepcDB or PDB records
row,Sequence,soluble on expression in E. coli
1,MARVVVLGAGIGGLPTAYELKHRLGDRHEVILVSDVDRFTFIPGLVAVALGHNSLERLQVPLETVSRRHGLRWVQGKVQRLAPQEKKIYLPEQALDYDYLVIATGAELAVDLIPGLGIHSHSVCTPAHAVAAQRAWQEFLKEPRDLVVGAAPGASCFGPAYEFLFLAEHALRHHGLRDRVKITFITPEPYVGHLGIGGLANSDQLTRNLIEKRGIETITNAEITAIEPHRILLRDRPVIPFGYSMILPPFRGVPFVRASGLGNEKGFLPLLPTLQHPNYPEIYGVGISVHLPPLEVTPVPVGVPKTGQMTEEMAIAASHNIAVALGELVADPVVPTLDALCFADFGNTGIAYIAAPVIPEPPGENRRLACALQGLWVSWVKAAFERYFLLKMRWGLGVPWFEQWGLRLFFGLSLVRPLQPTVFPEQQPIMKVLEHHHHHH,not soluble
2,MARYEEVSVSGFEEFHRAVEQHNGKTIFAYFTGSKDAGGKSWCPDCVQAEPVVREGLKHISEGCVFIYCQVGEKPYWKDPNNDFRKNLKVTAVPTLLKYGTPQKLVESECLQANLVEMLFSED,soluble
3,MASEMIVDHRQKAFELLKVDAEKILKLIRVQMDNLTMPQCPLYEEVLDTQMFGLSREIDFAVRLGLVDEKDGKDLLYTLERELSALHDAFTAK,soluble
4,MASGAKKLRNVNEVLSAKKPVSILLMGTDTGALGRTFAGRTDSMMVVTINPKTNKTTITSIPRDTAVNIPGYTSYGVSKINAAYAYGKSKTAITTVQKMLNIPIDFYAIINMGGMEKIIDEVGGVTLKPTLSFSYGGYTFKKGVKTHMNGKKALAYSRMRDDDPLGDYGRQTRQRKVIMALLNKSNSISSLLNEDFISSLSKQTQTDLTFNDLTALATNYRKATQYIKTTHLQGTSETIESQSMEVASKSELQRVTNYIRKALGLSHKTTGTIAQLEHHHHHH,soluble
5,MASIKLKFRPSSVKGKKGVLSYQIIHYRLTRLIKTSYRIMPSEWDDSTGSLLISTQSECKARLLLIRDQTNWEMTRLQGIINDLERTGVEYTIDDIVASFRKIPSVESVFNFMQRCINKLERQKRGRTAEGYTSTMNSFIQFRKNEDLSFEAFDSELMEMYEAYLKEKGLVKNSTSYYMRIWRSVYNLAVEQGYTTDKKPFKHVYTGIDKTVKRAVPFKIIKMIKELDLSFEPQLELARDIFLFSFYTRGMSFIDMAHLKKSNLQNGILTYSRKKTGQRLTILWEELMQEIVDKYKDDTSEYLLPILRYCDINDRKQYKLRAKQIGRGLNKIGLRLELKAPLTFYVARHSWASIAQDRKVSTDIIREGLGHDNEKTTHIYLASISTSQIDRANQIILRGL,not soluble
6,MASKLRRYIMNTTSLSLTPLLRHSVGFERFNDLFESMRNADDSTYAYPAYDIEKHGEDSYTITMAVPGFQESDLNIMVQNDQLTVSGRIQEKETKESEYLHRSIVTRAFEQTFRLADHMQVTGAEIKNGLLSIGLIREIPEEAKPRIIPIKSISDQESNKKGKTLEPESKKKISN,not soluble
7,MASKPGERKTQILHTLAEMLEQPHAARITTSALAARMQVSEAALYRHFASKAQMFEGLIEFIETSIFTVVNQIAVSEPYGMGQARKTVAMLLAFAERNRGITRVLTGDALVTEDNRLQERINHINDRIEASLKQCLRVAVSDGALPADANIAAHASLLTHLVLGRWLRYAQSGWRVAPTTHLEEHLRLALG,not soluble
8,MASRRKRRKVNEESEIPCSPVVIFAHGAGAPSSSDWMIRWKEMLKKTLEAVEVVTFDYPYLADGKKRVAPKAEKLIEFHLNVVKETAAKFPGHPLILVGKSMGSRVSCMVSAVNEDVTVSAVICLGYPLKGAKGAIRDETLLEMGVPVMFVQGSKDPMCPLNKLEAVCNKMKAVTEVHVIDGGDHSFKIGKKHLETKELTQEEVEDVAMKAIAAFVSKSLAQSS,soluble
9,MASSLHSPGQAFRAALAKENPLQIVGAINANHALLAQRAGYQAIYLSGGGVAAGSLGLPDLGISTLDDVLTDIRRITDVCPLPLLVDADIGFGSSAFNVARTVKSIAKAGAAALHIEDQVGAKRCGHRPNKAIVSKEEMVDRIRAAVDARTDPNFVIMARTDALAVEGLEAALDRAQAYVDAGADMLFPEAITELSMYRRFADVAQVPILANITEFGATPLFTTDELRSAHVAMALYPLSAFRAMNRAAEKVYTVLRQEGTQKNVIDIMQTRNELYESINYYQFEEKLDALYRNKKSLEHHHHHH,soluble
10,MASSLNEDPEGSRITYVKGDLFACPKTDSLAHCISEDCRMGAGIAVLFKKKFGGVQELLNQQKKSGEVAVLKRDGRYIYYLDWMWSLEHHHHHH,not soluble
11,MASSSSGGAGGAGGASGAPEVKIHNVYMSNVEEEFARIRGFVEDYPYVAMDTEFPGVVATPLGTFRSKEDFNYQQVFCNVNMLKLIQVGFAMVNDKGELPPTGDVWQFNFNFSFAEDMFSHESVEMLRQAGIDFTLLQNNGIPTAVFGELLTTSGLITDPRITWLTFSSGYDFGYLLKSITLGDLPKEESTFFMCHKTLFPTSFDIKILLRTPNCASAKLKGGLQEVADQLDVKRQGVRHQAGSDALLTAATFFKIKKQFFGDNWNQIAPLICGHMFGLGSSLSLFHSSGSTSRLGDETPQGLIGVPQQA,not soluble
12,MASSSSSSEHKVFLSFRREDTGRTFVSHLYRSLDQKEIRTYKFENQQAGDGKRISSEVKQAINESRIAVVVISENYVSSVLCLDVLAKIIERLPLIKIETVFYEVDPGDLTRPTGKFADDFRRHEARENRRTVNRWRDALDQLVSITNSNFCSRNWEDDSKMIDDLIIRLINIYFSKYYTPDVDIIAETTVGLDASVLGLMTDIDMKYKLNSLSGSVESGFGLERYALEATSVMDDMSNESPSPTSDDSNGLVGMYRHKKAVYGLLDLESKNQVRTIGIWGFQGVGKTTLAECVFDDISSHFQHYCFLTNANKIYQNRISPSLLKHLTRRRSSEDIFDAIKPSLVNRKVLFVVDGVDATYNEQFNDAMKVTRWLGPGSRIIMTSRFKSSLKFGGAKYEMECLRYEEALQLFSLYAFKKTYPLIGFELFSIRAVHFAGRLPLSLKVLGSFLYDKDEESWKRTLHKLEASQDNDRRYVSNYIGAGEYLPRRQIELEQYVSPDEEEYSPSYIMSL,soluble
13,MASSTVPVSAAGSANETPEIPDNVGDWLRGVYRFATDRNDFRRNLILNLGLFAAGVWLARNLSDIDLMAPQPGV,not soluble
14,MASYRVAALYRFTRFEDPAAIQGPLAALCCSLGVKGTLLLAREGINGTIAGEDAAIEAVLAHIRALPGCADLTPKTAWAERMPFYRMKVRLKKEIVTLGEPDLDPTDAGTYVEPADWNALISDPDVLVIDTRNAYEVAVGRFEGAIDPQTASFADFPAWFRDWRKSVEAQRGPEAPLKVAMYCTGGIRCEKSTAFLKAEGVEQVFHLKGGVLDYLEQIPQPESLWRGECFVFDERVSVGHGLVKGDHVLCRGCRMPVSPQDQASPLYVEGVACPACHDQRNEEQKARAAERHRQVLHCEALGVDHVGATLPTKIDLEHHHHHH,not soluble
15,MATALNPGRTSAPTPEAAPKLRFDARRYLGTPAVRRIKDEVEIELADRAYLPDLNDLKRDWVASVAAPAFRVLARNRATPPRAFASIGTGSGVDALAAIELLGAEIVGITDLFEEVVATAARNVRGNVRPEAGITLHAGAGDLLIPLAPAGVKFDVIYENLPNLPVDDSRKIEADKTSAAFLAPRSEAIPVFITDWLLTMHYLALVQARDALTPDGVVLSTVGARVPLDVLAQMSRAAGLVPRVLTYGWKVQADADDVISTYANWERQGLGPFRFYAADALEAAFANLDPGEAGANAATIEASLAGEQLGAVAAWEAHRSGLRIGHTYVVLQSGLGLEHHHHHH,soluble
16,MATAPYGVRLLVGAATVAVEETMKLPRTILMYPMTLASQAAHVVMRFQQGLAELVIKGDNTLETLFPPKDEKPEWATFDEDLPDALEGTSIPLLGLSDASEAKNDDRRSDGRFALYSVSDTPETTTASRSADRSTNPKTAKHPKSAAKPTVPTPAVAAELDYPALTLAQLRARLHTLDVPELEALLAYEQATKARAPFQTLLANRITRATAK,not soluble
17,MATIDLQKKSVKIVLEKKQLTKVTARVGLVLDITGSMRPLYKNGTVQNVVERILAVADQFDDNGLLDVWVYDNEFPRLKPVSEKDFPGYVDREILNNDRLHKFGRNDEPPVMKDVLRNMLRRNRARILLSLFLSMTGAVKSQSNRLIEASSDKPVFWQFVGIGNGNFDFLNKLDTLEGRVIDNTNFLHIEEIDRISDDELYDALLAEFPFWLKEAKEKGIVREQEPPAEKPKKKGFFSRLFSKLEHHHHHH,soluble
18,MATIKLKFRPSTVQGKAGTLCYQLCHRQENRQITTDMRIFPEWWNETKRELVAVPGNERVLTAYRKRAEKEMRDIREIIRELDCSGETYTLSEILNRYRSLPSEPGFLYYMKKEMETLWENGQYGTSRNYRRALNSFSAFLDGDDIPFSSLDSALACRYESWLWQQKVARNSSSFYMRILRAVYNKAVKQGLAVQTFPFREVYTGVARTSKRAVDEETIRKLQRLDLSGSPALALSRDMFVFSYCARGMAFVDMAYLKKEDVGGGRITYYRHKTGQYLTLRIEPCMVTILERYGRTCPESPYLFPILTDEQPELAYRQYRTGLNYHNRKLKRLGKLLGEPLPLSSYTPRHSWATAARNHDVPIAVISAGMGHSSERTTLIYLDSLDNAIIDNANEKILKGLNDTISM,not soluble
19,MATLATKKATLVAALKDLQRVTVAFSGGIDSTLVLKMALDVLGRDNVTAVVANSELFTDEEFDKAMSLAEELGANVQGTTLDYLSDDHIKNNTPDSWYYAKKMFYSRLNDIAANNGSAAVLDGMIKNDENDYRPGLKARSEAGARSLLQEADFFKTDVRALAQELGLTNWNKVASCSVSSRFPYGTTLTHDNIAQVMAAEKYLRSLGFPTVRVRFHNDIARIELPEARIGDFLVFNDRVNRQLQSLGFRYVTLDLGGFRSGRMNDTLTKAQLATFA,not soluble
20,MATLFIADLHLCAEEPAITAGFLRFLAGEARKADALYILGDLFEAWIGDDDPNPLHHQMAAAIKAVSDSGVPCYFIHGNRDFLLGKRFARESGMTLLPEEKVLELYGRRVLIMHGDTLCTDDAGYQAFRAKVHKPWLQTLFLALPLFVRKRIAARMRANSKEANSSKSLAIMDVNQNAVVSAMEKHQVQWLIHGHTHRPAVHELIANQQTAFRVVLGAWHTEGSMVKVTADDVELIHFPF,soluble
21,MATMARWERIVEGVKSIALIKRKIISRGKRIALLVDGPNILRKELGVHLEDIVEALSSLGNIRVAKVILNQYAPQSLIEAVSNQGFEPVIVAGEIGVKLAVEAMREVYNPNIDIIALATRNTEFVPIILKAKEKGKETAIIGVEPGFSSALKHAADYVIVLESRGELSEEGNIEDIEEGKGEGGRGRRKNDRLDN,soluble
22,MATPDVSVHMEEVVVVTTPDTAVDGSGVEGVKTVLVTTNLAPHGGDLTEDNMETENAAAAAAAAFTASSQLKEAVLVKMAEEGENLEAEIVYPITCGDSRANLIWRKFVCPGINVKCVQYDEHVISPKEFVHLAGKSTLKDWKRAIRMNGIMLRKIMDSGELDFYQHDKVCSNTCRSTKIDLSGARVSLSSPTSAEYIPLTPAAADVNGSPATITIETCEDPGDWTAAIGDDTFTFWRGLKDAGLLDEVIQEFHQELVETMRGLQQRVQDPPLQLRDAVLLNNIVQNFGMLDLVKKVLASHKCQMDRSREQYARDLAALEQQCDEHRRRAKELKHKSQHLSNVLMTLTPVSLPPPVKRPRLARATSGPAAMASQVLTQSAQLALGPGVPVPQLTSVPLGKVVSTLPSTVLGKGSLQAPPASSPASPLLGGYTVLASSGSTYPSTVEIHPDASSLTVLSTAAVQDGSTVFKVVSPLQLLTLPGLGPTLQNVAQASPGSSTIVTVPAGAAPGPEEHTATIEVAAMAEDHERK,not soluble
